Data: paper PMC3568928 (Journal of molecular biology, 2011)
Several values for one entry are separate records, joined by “and”; a condition that tells them apart may be missing. Identical values can stand only once.

T1: htt^NTQ15K2 (Phe→Trp replacement at position 17 (stands in the printed letters))
T1 peptide: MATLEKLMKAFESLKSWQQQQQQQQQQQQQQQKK

T2: htt^NTQ25K2 (Phe→Trp replacement at position 17 (stands in the printed letters))
T2 peptide: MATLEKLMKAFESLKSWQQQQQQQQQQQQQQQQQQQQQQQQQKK

B1: htt^NTQ10K2 (peptide)
peptide: MATLEKLMKAFESLKSFQQQQQQQQQQKK

What was measured:
htt^NTQ10K2 = target: B1; assay: seeded elongation, HPLC sedimentation assay
htt^NTQ15K2 = target: T1, htt^NTQ15K2; assay: seeded elongation, HPLC sedimentation assay
htt^NTQ25K2 = target: T2, htt^NTQ25K2; assay: seeded elongation, HPLC sedimentation assay
AUC = target: the molecule itself; assay: AUC

pseudo-first-order rate constant of seeded elongation (htt^NTQ10K2) | pseudo-first-order rate constant of seeded elongation (htt^NTQ15K2) | pseudo-first-order rate constant of seeded elongation (htt^NTQ25K2) | Binder | stoichiometry N (AUC)
0.249 h⁻¹ | 0.236 h⁻¹ | 0.316 h⁻¹ | htt^NTQ37P10K2 (peptide) peptide: MATLEKLMKAFESLKSWQQQQQQQQQQQQQQQQQQQQQQQQQQQQQQQQQQQQQPPPPPPPPPPKK | 
 |  |  | B1 | ~4 and ~8 and ~12
